B1: Tlr2: N414Q/N442Q (protein)
parent chain: MLRALWLFWILVAITVLFSKRCSAQESLSCDASGVCDGRSRSFTSIPSGLTAAMKSLDLSFNKITYIGHGDLRACANLQVLILKSSRINTIEGDAFYSLGSLEHLDLSDNHLSSLSSSWFGPLSSLKYLNLMGNPYQTLGVTSLFPNLTNLQTLRIGNVETFSEIRRIDFAGLTSLNELEIKALSLRNYQSQSLKSIRDIHHLTLHLSESAFLLEIFADILSSVRYLELRDTNLARFQFSPLPVDEVSSPMKKLAFRGSVLTDESFNELLKLLRYILELSEVEFDDCTLNGLGDFNPSESDVVSELGKVETVTIRRLHIPQFYLFYDLSTVYSLLEKVKRITVENSKVFLVPCSFSQHLKSLEFLDLSENLMVEEYLKNSACKGAWPSLQTLVLSQNHLRSMQKTGEILLTLKNLTSLDISRNTFHPMPDSCQWPEKMRFLNLSSTGIRVVKTCIPQTLEVLDVSNNNLDSFSLFLPRLQELYISRNKLKTLPDASLFPVLLVMKIRENAVSTFSKDQLGSFPKLETLEAGDNHFVCSCELLSFTMETPALAQILVDWPDSYLCDSPPRLHGHRLQDARPSVLECHQAALVSGVCCALLLLILLVGALCHHFHGLWYLRMMWAWLQAKRKPKKAPCRDVCYDAFVSYSEQDSHWVENLMVQQLENSDPPFKLCLHKRDFVPGKWIIDNIIDSIEKSHKTVFVLSENFVRSEWCKYELDFSHFRLFDENNDAAILVLLEPIERKAIPQRFCKLRKIMNTKTYLEWPLDEGQQEVFWVNLRTAIKS
B2: Tlr2: kifunensine (protein)
parent chain: B1 parent chain
B3: Tlr2: tunicamycin (protein)
parent chain: B1 parent chain
B4: Tlr2: swainsonine (protein)
parent chain: B1 parent chain

Columns and labels:
[1] = confocal imaging of Flag tag, transfected NIH-3T3 cells; conditions: glycan lost; control: wild-type Tlr2-Flag
[2] = confocal immunofluorescence of Tlr2, RAW264.7 cells; conditions: control: untreated RAW264.7 cells

Protein | localisation_or_trafficking ([2]; glycan changed form) | also measured
B1 | – | localisation_or_trafficking [1]: decreases
B2 | changes | –
B3 | – | localisation_or_trafficking ([2]; glycan lost): decreases
B4 | changes | –

— publication PMC8416091
